The values that follow come from patent US20260250318A1, “COMPOSITIONS AND METHODS FOR CROSSING THE BLOOD BRAIN BARRIER” (VOYAGER THERAPEUTICS, INC., priority 2022, published 2026).

In assay [1] the target is T1, ALPL on HeLa cells (Homo sapiens, UniProt P05186).
T1 construct: knockdown endogenous levels of ALPL in HeLa cells; endogenous in cells; host or cells: HeLa
T1 sequence (P05186 18-501): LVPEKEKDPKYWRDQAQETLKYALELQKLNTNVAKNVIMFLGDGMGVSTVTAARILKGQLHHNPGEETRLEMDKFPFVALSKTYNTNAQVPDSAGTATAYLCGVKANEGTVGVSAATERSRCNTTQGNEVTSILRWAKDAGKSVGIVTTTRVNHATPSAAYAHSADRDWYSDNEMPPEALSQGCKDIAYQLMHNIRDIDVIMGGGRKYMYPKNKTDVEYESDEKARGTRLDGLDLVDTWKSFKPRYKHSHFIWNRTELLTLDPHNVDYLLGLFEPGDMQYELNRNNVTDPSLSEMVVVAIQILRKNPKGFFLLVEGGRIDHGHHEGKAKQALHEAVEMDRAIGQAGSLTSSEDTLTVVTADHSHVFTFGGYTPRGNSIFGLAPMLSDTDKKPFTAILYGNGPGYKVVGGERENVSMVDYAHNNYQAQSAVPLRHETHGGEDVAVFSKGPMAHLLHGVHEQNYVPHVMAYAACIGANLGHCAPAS
Kind of assay: Transduction of HeLa cells after blocking with an anti-ALPL antibody. Type of assay: cell-based. Conditions: 1E4 VG/cell. On the procedure: Following incubation, the cells were transduced with 1E4 VG/cell of AAV particles comprising the TTM-002 capsid variant or an AAV9 control expressing a GFP-luciferase payload. After a 4 hour incubation period the AAV and media were removed and replaced with fresh media and luciferase activity was measured (RLU) 24 hours post transduction.

The test system of assay [2] is GPI anchored proteins (endogenous ALPL) on HeLa cells. Description: Transduction of HeLa cells after PI/PLC removal of GPI anchored proteins. Format: cell-based, human. Particulars: 1E4 VG/cell. On the procedure: Endogenous ALPL was also removed from the surface of HeLa cells by treatment with increasing concentrations phosphatidylinositol-specific phospholipase C (PI/PLC), which cleaves GPI anchored proteins (0, 1, 3, 6, or 10 U/mL), for 1.5 hours at 37° C. Following PI/PLC treatment, cells were incubated with 1E4 VG/cell for three hours of AAV particles comprising the TTM-002 capsid variant or AAV particles comprising an AAV9 control capsid, cells were then washed to remove free virus, and luciferase activity was measured 24 hours post-transduction (RLU).

The subject of assay [3] is brain. Kind of assay: Second cross-species screen, synthetic library passage 3 in C57Bl/6 mice. Format: in vivo. Conditions: third passage (P3). On the procedure:
There were approximately 500 variants in this synthetic library. This synthetic library was then injected back into both strains of mice (C57Bl/6 and BALB/c; passage 3). RNA was recovered from the mouse brains, RT-PCR amplification was performed, and fold-enrichment relative to wild-type AAV9 was calculated by NGS analysis, which is provided in Table 11.

For assay [4], the target named is T2, isoform 1 (Alkaline phosphatase, placental-like 2 (ALPPL2)) (Homo sapiens, UniProt P10696).
T2 construct: expressed in transfected cells; host or cells: HEK 293T
Kind of assay: Transduction assay in HEK 293T cells expressing isoform 1. Format: cell-based. An excerpt: Three isoforms of ALPL exist, isoform 1 (Alkaline phosphatase, placental-like 2 (ALPPL2), NM_031313, which is incorporated by reference herein), isoform 2 (alkaline phosphatase, placental (ALPP), NM_001632, which is incorporated by reference herein), and isoform 3 (alkaline phosphatase, intestinal (ALPLI), NM_001631, which is incorporated by reference herein), that can also be expressed on cell surfaces via a GPI-anchor. Isoform 1 is 56.25% identical and 72.54% similar (gaps: 4.17%) to ALPL, isoform 2 is 54.96% identical and 71.37% similar (gaps: 2.29%) to ALPL, and isoform 3 is 55.98% identical and 72.11% similar (gaps: 3.04%) to ALPL. The transduction assay described above was repeated with the three isoforms. HEK 293T cells were transfected via calcium phosphate transfection with a plasmid expressing ALPL, isoform 1 of ALPL, isoform 2 of ALPL, isoform 3 of ALPL, an AAVR positive control, or a pCMV6 negative control. […] At 24-hours post-transduction, luciferase activity (RLU) was measured to quantify AAV cellular transduction.

Assay [5] concerns brain, spinal cord, and DRG of the NHPs. Description: NGS fold enrichment of synthetic library (passage 3) in NHPs, first cross-species screen. Format: in vivo, cynomolgus macaques (Macaca fascicularis). In a few lines:
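Fold enrichment versus wild-type AAV9 was derived by NGS of RT-PCR-amplified RNA from nervous tissue, collected e.g. 28 days after IV dosing […]. The library (passage 3) was given to two NHPs aged 2-4 years and to 6-8-week BALB/c and C57Bl/6 mice (n=3 each).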

For assay [6], the system named is HEK 293T cells transfected with pCMV6 negative control. Description: Binding and internalization assay in HEK 293T cells transfected with pCMV6 negative control (viral genomes). Type of assay: cell-based. Particulars: pCMV6 transfected cells (negative control, reference). On the procedure:
Binding and internalization of AAV capsid variants comprising the TTM-001 capsid variant, the TTM-002 capsid variant, or the AAV9 control capsid was also investigated in cells engineered to express ALPL. HEK 293T cells were transfected via calcium phosphate transfection with a plasmid expressing ALPL, an AAVR positive control, or a pCMV6 negative control. At 24 hours post-transfection, the HEK 293T cells expressing the ALPL receptor were incubated with an AAV particle comprising the TTM-001 capsid variant, the TTM-002 capsid variant, or an AAV9 control capsid protein, expressing a GFP payload. At 2 or 3-hours post-incubation, cells were washed to remove unbound AAV particles and DNA was extracted to quantify viral genomes.

T2 sequence (P10696 20-503): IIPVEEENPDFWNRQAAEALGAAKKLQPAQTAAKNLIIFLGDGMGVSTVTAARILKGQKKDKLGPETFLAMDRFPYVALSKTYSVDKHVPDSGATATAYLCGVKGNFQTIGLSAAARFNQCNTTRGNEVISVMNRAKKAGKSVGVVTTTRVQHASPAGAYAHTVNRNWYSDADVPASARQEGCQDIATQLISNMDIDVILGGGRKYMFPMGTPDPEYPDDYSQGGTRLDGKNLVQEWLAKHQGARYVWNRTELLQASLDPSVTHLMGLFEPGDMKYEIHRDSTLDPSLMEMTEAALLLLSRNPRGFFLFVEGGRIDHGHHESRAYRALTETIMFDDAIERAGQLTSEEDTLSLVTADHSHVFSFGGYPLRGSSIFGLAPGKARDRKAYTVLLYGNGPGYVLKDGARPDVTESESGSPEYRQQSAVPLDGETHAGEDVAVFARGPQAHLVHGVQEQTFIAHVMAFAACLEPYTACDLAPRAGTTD

Take “AAV9: wild-type AAV9 control capsid [reference compound]”: the “Transduction in Hela cells as measured by luciferase assay (RLU)” value is reported as 530.67 RLU in assay [1] (Anti-ALPL antibody 0 μg/mL); 527.33 RLU in assay [1] (Anti-ALPL antibody 3.125 μg/mL); 451.67 RLU in assay [1] (Anti-ALPL antibody 6.25 μg/mL); 417.33 RLU in assay [1] (Anti-ALPL antibody 12.5 μg/mL); 433.33 RLU in assay [1] (IgG isotype control 0 μg/mL); 457.67 RLU in assay [1] (IgG isotype control 3.125 μg/mL). The “Transduction in Hela cells as measured by luciferase assay (RLU)” value stood at 516.33 RLU in assay [1] (IgG isotype control 6.25 μg/mL) and 551.33 RLU in assay [1] (IgG isotype control 12.5 μg/mL). Moreover, the “Transduction in HeLa as measured by luciferase assay (RLU) following treatment with PI/PLC” value turned out to be 239.3 RLU in assay [2] (PI/PLC 0 U/mL); 193.7 RLU in assay [2] (PI/PLC 1 U/mL); 222 RLU in assay [2] (PI/PLC 3 U/mL); 207.7 RLU in assay [2] (PI/PLC 6 U/mL); 212 RLU in assay [2] (PI/PLC 10 U/mL).

B1: TTM-001: AAV9 capsid variant comprising SPHSKA (SEQ ID NO: 941) in loop IV (protein)
chain 1: MAADGYLPDWLEDNLSEGIREWWALKPGAPQPKANQQHQDNARGLVLPGYKYLGPGNGLDKGEPVNAADAAALEHDKAYDQQLKAGDNPYLKYNHADAEFQERLKEDTSFGGNLGRAVFQAKKRLLEPLGLVEEAAKTAPGKKRPVEQSPQEPDSSAGIGKSGAQPAKKRLNFGQTGDTESVPDPQPIGEPPAAPSGVGSLTMASGGGAPVADNNEGADGVGSSSGNWHCDSQWLGDRVITTSTRTWALPTYNNHLYKQISNSTSGGSSNDNAYFGYSTPWGYFDFNRFHCHFSPRDWQRLINNNWGFRPKRLNFKLFNIQVKEVTDNNGVKTIANNLTSTVQVFTDSDYQLPYVLGSAHEGCLPPFPADVFMIPQYGYLTLNDGSQAVGRSSFYCLEYFPSQMLRTGNNFQFSYEFENVPFHSSYAHSQSLDRLMNPLIDQYLYYLSKTINGSGSPHSKAQNQQTLKFSVAGPSNMAVQGRNYIPGPSYRQQRVSTTVTQNNNSEFAWPGASSWALNGRNSLMNPGPAMASHKEGEDRFFPLSGSLIFGKQGTGRDNVDADKVMITNEEEIKTTNPVATESYGQVATNHQSAQAQAQTGWVQNQGILPGMVWQDRDVYLQGPIWAKIPHTDGNFHPSPLMGGFGMKHPPPQILIKNTPVPADPPTAFNKDKLNSFITQYSTGQVSVEIEWELQKENSKRWNPEIQYTSNYYKSNNVEFAVNTEGVYSEPRPIGTRYLTRNL
chain 2: GSGSPHSKAQNQQT
With B1, the “Fold enrichment over AAV9 in C57Bl/6” value in assay [3] is listed as 65.853 fold. In addition, the “Luciferase Activity (RLU)” value in assay [4] (Table 30, Isoform 1 transfected cells) was 4,072 RLU. For the same molecule, the “increase in transduction in cells expressing isoform 1” value in assay [4] (luciferase activity (RLU)) is “did not occur”. In addition, in assay [5] (passage 3, intravenous, DRG), the “fold enrichment in the DRG of NHPs relative to AAV9” value is listed as 0.4 fold. Besides, the “fold enrichment in the brain of NHPs relative to AAV9” value was 73.6 fold in assay [5] (passage 3, intravenous) and 76.6 fold in assay [5] (passage 3, intravenous, listed as GSGSPHSKAQNQQT). Moreover, in assay [5] (passage 3, intravenous, spinal cord), the “fold enrichment in the spinal cord of NHPs relative to AAV9” value was determined as 29.4 fold. In addition, in assay [5] (synthetic library passage 3, intravenous, RNA NGS, brain of NHPs, relative to wild-type AAV9), the “Fold enrichment over AAV9 in the brain of NHPs” value is recorded as 73.615 fold. The “Fold enrichment over AAV9 in the spinal cord of NHPs” value in assay [5] (synthetic library passage 3, intravenous, RNA NGS, spinal cord of NHPs, relative to wild-type AAV9) worked out at 29.402 fold. For the same molecule, the “Fold change in viral gene expression (2^-ΔΔCT) relative to pCMV6 transfected cells” value in assay [6] is 1 fold.
